# From the nanobody polyreactivity screen of Harvey et al. (2022)
# Assay: yeast display, Sf9 membrane polyspecificity reagent, FACS + sequencing; frameworks hold sequencing errors
# In short: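 Synthetic nanobody libraries on Saccharomyces cerevisiae BJ5465 were galactose-induced for 36–48 hours, stained 1 hour at 4 °C with 10% biotinylated, detergent-solubilized Sf9 membrane reagent and enriched on streptavidin microbeads. FACS then separated cells into low and high (top ~1%) gates by anti-HA (expression) and streptavidin (reagent binding) fluorescence. Genes were colony-PCR amplified, MiSeq 2 × 250 sequenced and CDR-length filtered. A clone's polyreactivity label is that of its gate of origin.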
row,Sequence,polyreactivity (PSR sort gate)
1,QVQLVESGGGLVQAGGSLRLSCAASGFIFGNNDRGWYRQAPGKERELVAGITWSGSSTYYADSVKGRFTISRDNAKNTVYLQMNSLKPEDTAVYYCIRVFTWRYGYRYEYWGQGTQVTVSS,high polyreactivity
2,QVQLVESGGGLVQAGGSLRLSCAASGFIFGPYAMGWYRTAPGKERELVAAITYSSGSTYYADSVKGRFTISRDNAKNTVYLQMNSLKPEDTAVYYCNAEFWYETLYEYDYWGQGTQVTVSS,high polyreactivity
3,QVQLVESGGGLVQAGGSLRLSCAASGFIFGQYAMGWYRQAPGKERELVAAISRSGGSTYYADSVKGRFTISRDNAKNTVYLQMNSLKPEDTAVYYCNRRARGDSYRLDYWGQGTQVTVSS,high polyreactivity
4,QVQLVESGGGLVQAGGSLRLSCAASGFIFGRYAMGWYRQAPGKERELVAAITASGGRTYYADSVKGRFTISRDNAKNTVYLQMNSLKPEDTAVYYCNTPSLWCGEDYWGQGTQVTVSS,high polyreactivity
5,QVQLVESGGGLVQAGGSLRLSCAASGFIFGRYAMGWYRQAPGKERELVAGISSRGGRTYYADSVKGRFTISRDTAKNPVFLQINSLKPEDTAVYYCGAAGLTDYVRYDYWGQGTQVTVSS,high polyreactivity
6,QVQLVESGGGLVQAGGSLRLSCAASGFIFGRYAMVWYRQAPGKERHFVASISWSGGSTHYADSVKGRFTISREKAKNTVYLHMNSLKPVDTAVYYCARGFPPYRVTHMNYWGQGTLVTVSS,high polyreactivity
7,QVQLVESGGGLVQAGGSLRLSCAASGFIFGRYTMGWYRQAPWKERELVAAISGSGGRTYYADSVKGRFTISRDNAKNTVYLQMNSLKPEDTSVYYCATYGYFYYDYWGQGTQVTVSS,high polyreactivity
8,QVQLVESGGGLVQAGGSLRLSCAASGFIFGRYTMGWYRQATGKERELVAAISGSDVTTYYADSVKGRFTISRDNAKNTVYLQMNSLKPEDTAVYYCAADSPWAYYEYDYWGQGTHVTVSS,low polyreactivity
9,QVQLVESGGGLVQAGGSLRLSCAASGFIFGSNAMGWYRQAPGKERELVAAISRSGGSTYYADSVKGRFTISRDNAKNTVYLQMNSLKPEHTAVYYCASYLYKSRYLPEYDYWGQGTQVTVSS,high polyreactivity
10,QVQLVESGGGLVQAGGSLRLSCAASGFIFGSYTMGWYRQAPGKERELVAAITTGGSTNYADSVKGRFTISRDNAKNTVYLQMNSLKPEDTAVYYCAARTVGFYRYDYWGQGTQVTVSS,low polyreactivity
11,QVQLVESGGGLVQAGGSLRLSCAASGFIFGTNAMGWYRQAPGKERELVAAISIGDSTYYADSVKGRFTISRDNAKNTVYVQKNSLKPEDTAVYYCNARAYSIYLLQKTYAFNYWGQGTQVTVSS,low polyreactivity
12,QVQLVESGGGLVQAGGSLRLSCAASGFIFGTYAMGWYRQAPGKERELVAAISVGGGSTYYADSVKGRFTISRDNAKNSVYLQMNSLKPEDTAVYYCNALYNDHFSWFSFGYWGQGTQVTVSS,low polyreactivity
13,QVQLVESGGGLVQAGGSLRLSCAASGFIFGTYAMGWYRQAPGKERELVAAISVGGGSTYYADSVKGRFTISRDNAKNTVYLQMNSLKPEDTAVYYCAAVQLYQKHQITYVAHEYWGQGTQVTVSS,low polyreactivity
14,QVQLVESGGGLVQAGGSLRLSCAASGFIFGTYVMGWYRQAPGKERELVAAISESGGRTYYADSVKGRFTISRDNAKNTVYLQMNSLKPEDTAVYYCAKVRHIRFHYYYGYQSYYYWGQGTQVTVSS,high polyreactivity
15,QVQLVESGGGLVQAGGSLRLSCAASGFIFGWYAMGWYRQAPGKERELVAVIRSGGRTNYADSVKGRFTISRDNAKNTVYLQMNSLKPEDTAVYDCNAVGGRGYGGGFWGQGTQVTVSS,high polyreactivity
16,QVQLVESGGGLVQAGGSLRLSCAASGFIFGYNAMGWYRQAPGKERELVAAIRAGDGSTYYADSVKGRFTISRDNAKNTVYLQMNSLKPEDTAVYYCAAAWRQSGYRYGYWGQGTQVTVSS,high polyreactivity

row,Sequence,polyreactivity (PSR sort gate)
1,QVQLVESGGGLVQAGGSLRLSCAASGFIFGYNAMGWYRQAPGKERELVAAITWIGGTTYYADSVKGRFTISRDNAKNTVYLQMNSLKPEDTAVYYCARQRSYGRSSYSYGYDYWGQGTQVTVSS,high polyreactivity
2,QVQLVESGGGLVQAGGSLRLSCAASGFIFGYNAMGWYRQEPGKERELVARIRYRGARTYYADSVKGRFTISRDNAKNTVYLQMNSLKPEDTAVYYCAAVASWPGGYDYWGQGTQVTVSS,high polyreactivity
3,QVQLVESGGGLVQAGGSLRLSCAASGFIFGYNGMGWYRQAPGKERELVAGITYSDGSTYYADSVKGRFTISRDNAKNTVYLQMNSLKPEDTAVYYCAVDVIYYWAEDYDYWGQGTQVTVSS,low polyreactivity
4,QVQLVESGGGLVQAGGSLRLSCAASGFIFGYNTMGWYRQAPGKERELVAAISWSGGSTYYADSVKGRFTISRVNAKNSVYLQMNSLKPEDTAVYYCATVSRSYSELDYWGQGTQVTVSS,low polyreactivity
5,QVQLVESGGGLVQAGGSLRLSCAASGFIFGYYAMGWDRQAPGKERELVAAITSDGNTDYSDSVKGRFTISRDNAKNTVYLQMNSLKPEDTAVYYCATDWVDHYDYWGQGTQVTVSS,low polyreactivity
6,QVQLVESGGGLVQAGGSLRLSCAASGFIFGYYAMGWYRHAPGKERELVAAISYSGGSTYYADSVKGRFTISRDNAKNTVYLQMYSLKPEDTAVYYCAKYGQSNYDWGQGTQVTLSS,high polyreactivity
7,QVQLVESGGGLVQAGGSLRLSCAASGFIFGYYAMGWYRPAPGNERELVAAIDWSDGSTYYADSVKGRFTISRDNAKNTVYLQMNSLKPEDTAVYYSAVDTYSQQAGDYEYWGQGTQVTVSS,low polyreactivity
8,QVQLVESGGGLVQAGGSLRLSCAASGFIFGYYAMGWYRQAPGKERELVAAISRSGGRTYYADSVKGRFTISRDNAKNTVYLQMNSLKPEDTAVYYCAKGSNRSRGYYWGQGTQVTVSS,high polyreactivity
9,QVQLVESGGGLVQAGGSLRLSCAASGFIFGYYAMGWYRQAPGKERELVAAISSGGTTTYYADSVKGRFTISRDNAKNTVYLQMNSLKPEDTAVYYCAKVSQRRVDNSDYDYWGQGTQVTVSS,high polyreactivity
10,QVQLVESGGGLVQAGGSLRLSCAASGFIFGYYAMGWYRQAPGKERELVAAISSRGGSTYYADSVKGRFTISRDNAKNTVYLQMNSLKPEDTAVYYCAVRRVSFRHKFGQYDYWGQGTQVTVSA,high polyreactivity
11,QVQLVESGGGLVQAGGSLRLSCAASGFIFGYYAMGWYRQAPGKERELVAAISTRGSTYYADSVKGRFTISRDNAKYTVYLQMNSLKPEDTAVYYCNAGWGYRRDYWGQGTQVTVSS,high polyreactivity
12,QVQLVESGGGLVQAGGSLRLSCAASGFIFGYYAMGWYRQAPGKERELVAAISWNGGSTYYADSVKGRFTISRDNAKNTVYLQMNSLKPEDTAVYYCAADGYETYYDYDYWGQGTQVTVSS,high polyreactivity
13,QVQLVESGGGLVQAGGSLRLSCAASGFIFGYYAMGWYRQAPGKERELVAAISYSGGSTYYADSVKGRFTISRDNAKNTVYLQMNSLKPEDTAVYYCAKYGQSNYDWGQGTQVTVSS,high polyreactivity
14,QVQLVESGGGLVQAGGSLRLSCAASGFIFGYYAMGWYRQAPGKERELVAAITTSAASTYYADSVKGRFTISRDNAKNTVYLQMNSLKPEDTAVYYCNAVLYKVSISEYDYWGQGTQVTVSS,high polyreactivity
15,QVQLVESGGGLVQAGGSLRLSCAASGFIFGYYGMGWYRQAPGKERELVAAITDGGSTTYADSVKGRFTISRDNAKNTVYLQMNSLKPEDTAVYYCNAEAGGFDYYGKTYRYGDYWGQGTQVTVSS,low polyreactivity
16,QVQLVESGGGLVQAGGSLRLSCAASGFIFHGYAMGWYRQAPGKERELVAAISGTGGSTYYADSVKGRFTISRDNAKNTVYLQMNSLKPEDTAVYYYKAERSGNGYWGQGTQVTVSS,high polyreactivity
